Measured values taken from patent US20210087281A1 (AGOMAB THERAPEUTICS, published 2021).

Experiments:
[1] = target: T1, native human MET on living cells (human, UniProt P08581 25-1390); test: cell-based or functional assay
[2] = target: T2, native mouse MET on living cells (mouse, UniProt P16056 25-1379); test: cell-based or functional assay
[3] = target: T1, native human MET on living cells; test: cell-based or functional assay; remark: listed apart in the source
[4] = target: T2, native mouse MET on living cells; test: cell-based or functional assay; remark: listed apart in the source
[5] = target: human MET ECD mutant H (mutations 2, 4) (human) (UniProt P08581); test: ELISA, MET ECD in solid phase, mAb 0-50 nM
[6] = target: human MET ECD mutant E (mutations 2, 3, 4) (human) (UniProt P08581); test: ELISA, MET ECD in solid phase, mAb 0-50 nM
[7] = target: human MET ECD mutant D (mutations 1, 2) (human) (UniProt P08581); test: ELISA, MET ECD in solid phase, mAb 0-50 nM
[8] = target: human MET ECD mutant A (mutations 1, 2, 3) (human) (UniProt P08581); test: ELISA, MET ECD in solid phase, mAb 0-50 nM
[9] = target: T1, native human MET on living cells; test: cell-based or functional assay; remark: listed apart in the source
[10] = target: T2, native mouse MET on living cells; test: cell-based or functional assay; remark: listed apart in the source
[11] = target: T1, native human MET on living cells; test: flow cytometry, A549 cells
In short: (§1)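 Detection used a phycoerythrin-labelled anti-human IgG1 secondary and flow cytometry, measuring binding of chimeric antibodies to native MET on live A549 (human) or MLP29 (mouse) cells. Positive controls were a mouse anti-human MET and a goat anti-mouse MET antibody, each with a PE-labelled secondary.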

[12] = target: T3, human MET ECD (human, UniProt P08581 25-932); test: ELISA, MET ECD in solid phase, mAb 0-20 nM
T3 construct: range 1-932; recombinant ECD made by the applicants; the stated range begins at residue 1, so it includes the signal peptide of the entry; also called hMET; hMET ECD
T3 sequence (P08581 25-932 limits assumed, form in doubt): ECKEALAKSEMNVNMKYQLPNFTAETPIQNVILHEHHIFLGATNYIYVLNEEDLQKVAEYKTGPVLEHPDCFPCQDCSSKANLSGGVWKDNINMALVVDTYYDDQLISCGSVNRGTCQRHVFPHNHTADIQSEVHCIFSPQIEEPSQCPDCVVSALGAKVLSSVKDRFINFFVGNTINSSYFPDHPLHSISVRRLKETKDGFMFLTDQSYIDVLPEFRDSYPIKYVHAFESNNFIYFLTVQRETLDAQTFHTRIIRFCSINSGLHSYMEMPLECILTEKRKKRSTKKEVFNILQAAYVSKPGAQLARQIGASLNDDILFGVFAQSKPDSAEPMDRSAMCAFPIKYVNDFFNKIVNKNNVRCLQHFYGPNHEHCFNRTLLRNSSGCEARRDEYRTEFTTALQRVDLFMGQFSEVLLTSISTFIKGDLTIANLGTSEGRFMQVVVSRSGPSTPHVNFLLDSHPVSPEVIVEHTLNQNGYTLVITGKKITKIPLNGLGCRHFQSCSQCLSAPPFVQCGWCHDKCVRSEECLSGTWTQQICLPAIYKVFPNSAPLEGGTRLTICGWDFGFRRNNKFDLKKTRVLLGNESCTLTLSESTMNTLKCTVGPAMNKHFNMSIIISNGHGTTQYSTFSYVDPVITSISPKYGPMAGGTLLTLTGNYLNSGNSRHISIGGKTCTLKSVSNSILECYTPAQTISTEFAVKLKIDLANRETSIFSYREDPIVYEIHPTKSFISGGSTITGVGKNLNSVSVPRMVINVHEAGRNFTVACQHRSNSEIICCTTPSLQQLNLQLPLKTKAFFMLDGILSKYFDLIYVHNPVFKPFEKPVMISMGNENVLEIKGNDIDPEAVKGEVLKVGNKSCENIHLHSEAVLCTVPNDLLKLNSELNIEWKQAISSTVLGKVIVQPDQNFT
In short: (§2)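 ELISA with human or mouse MET ECD coated on the plate; increasing antibody concentrations (0-20 nM) added in solution. Antibodies were chimeric llama-human IgG1, made by transient mammalian transfection and purified on protein A.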

[13] = target: T4, mouse MET ECD (mouse, UniProt P16056 25-931); test: ELISA, MET ECD in solid phase, mAb 0-20 nM
T4 construct: range 1-931; recombinant ECD made by the applicants; the stated range begins at residue 1; also called mMET; mMET ECD
In short: as §2

[14] = target: T5, human MET-Fc (R&D Systems) (human, UniProt P08581 25-932); test: competition ELISA, hMET-Fc in solid phase, competitor 0.3 nM biotinylated hHGF
T5 construct: extracellular domain; bought chimeric protein; also called hMET; not shown: Fc portion of human IgG1
T5 sequence (P08581 25-932): as the sequence (P08581 25-932 limits assumed, form in doubt) above
In short: (§3)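 Recombinant HGF was biotinylated at its N-terminus with NHS-LC-biotin. Immobilized MET-Fc was exposed to the labelled ligand in the presence of increasing antibody concentrations (0-120 nM). Competition was expressed as IC₅₀, the concentration giving 50% competition, and IMAX, the maximum % competition at saturation.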

[15] = target: T3, human MET ECD; test: ELISA, MET ECD in solid phase, mAb 0-50 nM
Protocol: Using human MET as a template, we mutagenized each of these residues in different permutations, generating a series of MET mutants that are fully human except for specific residues, which are llama. Next, we tested the affinity of selected SEMA-binding mAbs (71D6, 71C3, 71D4, 71A3, 71G2) and PSI-binding mAbs (76H10 and 71G3) for these MET mutants by ELISA. To this end, the various MET proteins were immobilized in solid phase (100 ng/well in a 96-well plate) and then exposed to increasing concentrations of antibodies (0-50 nM) solution. […] Wild-type human MET was used as positive control.
TABLE 18 The epitopes of MET responsible for agonistic antibody binding represent residues conserved among H. sapiens, M. musculus, R. norvegicus, M. fascicularis but not among the same species and L. glama. The relevance of residues conserved among human, mouse, rat, cynomolgus monkey but not llama MET for binding to agonistic mAbs was tested by ELISA. Wild-type (WT) or mutant (MT) human MET ECD was immobilized in solid phase and exposed to increasing concentrations of mAbs in solution. […] All binding values were normalized to the WT protein and are expressed as % binding (EMAX) compared to WT MET.

[16] = target: T1, native human MET on living cells; test: cell-based or functional assay; remark: listed apart in the source
[17] = target: T2, native mouse MET on living cells; test: cell-based or functional assay; remark: listed apart in the source
[18] = target: T2, native mouse MET on living cells; test: flow cytometry, MLP29 cells
In short: as §1

[19] = target: T6, mouse MET-Fc (R&D Systems) (mouse, UniProt P16056 25-929, limits assumed); test: competition ELISA, mMET-Fc in solid phase, competitor 0.3 nM biotinylated mHGF
T6 construct: bought chimeric protein; also called mMET; not shown: Fc part
In short: as §3

T1 sequence (P08581 25-1390): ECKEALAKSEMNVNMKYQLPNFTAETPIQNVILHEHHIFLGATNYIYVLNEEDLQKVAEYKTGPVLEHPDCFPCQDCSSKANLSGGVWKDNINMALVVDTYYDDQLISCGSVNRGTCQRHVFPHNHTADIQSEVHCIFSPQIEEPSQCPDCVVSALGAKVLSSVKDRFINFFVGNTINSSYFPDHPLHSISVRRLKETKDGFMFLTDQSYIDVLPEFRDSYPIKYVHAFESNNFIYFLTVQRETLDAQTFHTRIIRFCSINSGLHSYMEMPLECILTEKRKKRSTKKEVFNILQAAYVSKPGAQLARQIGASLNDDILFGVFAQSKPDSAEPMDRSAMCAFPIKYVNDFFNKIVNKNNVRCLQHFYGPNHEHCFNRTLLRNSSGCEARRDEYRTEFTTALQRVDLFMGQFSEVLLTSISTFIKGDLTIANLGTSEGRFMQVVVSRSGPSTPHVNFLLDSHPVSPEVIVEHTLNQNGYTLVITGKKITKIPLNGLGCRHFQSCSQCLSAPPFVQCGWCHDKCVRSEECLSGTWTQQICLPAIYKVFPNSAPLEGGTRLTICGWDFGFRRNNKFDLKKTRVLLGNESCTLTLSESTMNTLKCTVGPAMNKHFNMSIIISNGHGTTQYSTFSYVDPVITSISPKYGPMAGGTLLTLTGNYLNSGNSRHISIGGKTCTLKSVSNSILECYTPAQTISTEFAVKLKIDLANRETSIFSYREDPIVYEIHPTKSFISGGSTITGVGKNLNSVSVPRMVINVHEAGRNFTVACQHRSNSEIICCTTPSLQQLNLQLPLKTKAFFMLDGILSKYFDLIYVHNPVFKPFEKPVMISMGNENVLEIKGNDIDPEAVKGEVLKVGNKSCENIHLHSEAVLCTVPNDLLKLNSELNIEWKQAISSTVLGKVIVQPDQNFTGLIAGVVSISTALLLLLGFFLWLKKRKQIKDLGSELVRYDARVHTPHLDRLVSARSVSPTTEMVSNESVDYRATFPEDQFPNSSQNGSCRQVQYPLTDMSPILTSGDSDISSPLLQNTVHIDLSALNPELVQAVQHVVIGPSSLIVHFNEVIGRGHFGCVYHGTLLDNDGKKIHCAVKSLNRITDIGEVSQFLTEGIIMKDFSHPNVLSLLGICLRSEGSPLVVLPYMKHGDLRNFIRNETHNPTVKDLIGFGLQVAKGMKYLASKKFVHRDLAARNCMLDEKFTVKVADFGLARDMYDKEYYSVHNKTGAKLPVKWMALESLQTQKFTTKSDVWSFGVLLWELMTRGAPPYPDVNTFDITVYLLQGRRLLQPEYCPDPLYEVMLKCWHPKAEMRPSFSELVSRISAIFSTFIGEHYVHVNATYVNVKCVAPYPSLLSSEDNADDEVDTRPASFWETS

B1: 71D4 chimeric llama-human IgG1 mAb (antibody, V domains shown)
VH: ELQLVESGGGLVQPGGSLRLSCAASGFTFSGYGMSWVRQAPGKGLEWVSDINSGGGSTSYADSVKGRFTISRDNAKNTLYLQMNSLKPEDTAVYYCAKDMRLYLARYNDYEAWDYWGQGTQVTVSS
VL: SSALTQPSALSVTLGQTAKITCQGGSLGSSYAHWYQQKPGQAPVLVIYDDDSRPSGIPERFSGSSSGGTATLTISGAQAEDEGDYYCQSADSSGNAAVFGGGTHLTVL
notes: llama VH on human IgG1 CH1-CH2-CH3, llama VL on human lambda CL
branches per spheroid, LOC cells, 0.5 nM [1]: 9 branches | branches per spheroid, LOC cells, 2.5 nM [1]: 15.7 branches | branches per spheroid, LOC cells, 12.5 nM [1]: 18.7 branches | branches per spheroid, MLP29 cells, 0.5 nM [2]: 16 branches | branches per spheroid, MLP29 cells, 2.5 nM [2]: 14.7 branches | branches per spheroid, MLP29 cells, 12.5 nM [2]: 21.7 branches | scatter score 0-4, HPAF-II, 0.001 nM [3]: 0 score | scatter score 0-4, HPAF-II, 0.004 nM [3]: 0 score | scatter score 0-4, HPAF-II, 0.012 nM [3]: 0 score | scatter score 0-4, HPAF-II, 0.037 nM [3]: 0 score | scatter score 0-4, HPAF-II, 0.111 nM [3]: 0 score | scatter score 0-4, HPAF-II, 0.333 nM [3]: 0 score | scatter score 0-4, HPAF-II, 1.000 nM [3]: 1 score | scatter score 0-4, HPAF-II, 3.000 nM [3]: 2 score | scatter score 0-4, HPAF-II, 9.000 nM [3]: 2 score | scatter score 0-4, MLP29, 0.001 nM [4]: 0 score | scatter score 0-4, MLP29, 0.004 nM [4]: 0 score | scatter score 0-4, MLP29, 0.012 nM [4]: 0 score | scatter score 0-4, MLP29, 0.037 nM [4]: 0 score | scatter score 0-4, MLP29, 0.111 nM [4]: 0 score | scatter score 0-4, MLP29, 0.333 nM [4]: 0 score | scatter score 0-4, MLP29, 1.000 nM [4]: 1 score | scatter score 0-4, MLP29, 3.000 nM [4]: 2 score | scatter score 0-4, MLP29, 9.000 nM [4]: 2 score | % binding (EMAX) compared to WT MET [5]: 58.7 % WT MET ECD | % binding (EMAX) compared to WT MET [6]: 57.2 % WT MET ECD | % binding (EMAX) compared to WT MET [7]: 120 % WT MET ECD | % binding (EMAX) compared to WT MET [8]: 114 % WT MET ECD | phospho-MET ELISA EC50, A549 cells [9]: 590 pM | phospho-MET ELISA EMAX (% HGF activity), A549 cells [9]: 84.6% | phospho-MET ELISA EC50, MLP29 cells [10]: 510 pM | phospho-MET ELISA EMAX (% HGF activity), MLP29 cells [10]: 95.3% | EC50 [11]: 371 pM | EMAX [11]: 107 % relative to control | EC50 [12]: 207 pM | EMAX (OD450) [12]: 1.43 AU | EC50 [13]: 274 pM | EMAX (OD450) [13]: 1.17 AU | IC50 [14]: 340 pM | IMAX [14]: 95.6% | % binding (EMAX) compared to WT MET [15]: 100 % WT MET ECD | protection from staurosporine, viability EC50, MCF10A cells [16]: 30200 pM | protection from staurosporine, viability EMAX, MCF10A cells [16]: 51.7% | protection from staurosporine, viability EC50, MLP29 cells [17]: 29800 pM | protection from staurosporine, viability EMAX, MLP29 cells [17]: 52.1% | EC50 [18]: 498 pM | EMAX [18]: 94.8 % relative to control | IC50 [19]: 400 pM | IMAX [19]: 91.3%

B2: 71A3 chimeric llama-human IgG1 mAb (antibody, V domains shown)
VH: EVQLVESGGGLVQPGGSLRLSCAASGFSFKDYDITWVRQAPGKGLEWVSTITSRSGSTSYVDSVKGRFTISGDNAKNTLYLQMNSLKPEDTAVYYCAKVYATTWDVGPLGYGMDYWGKGTLVTVSS
VL: SYELTQPSALSVTLGQTAKITCQGGSLGSSYAHWYQQKPGQAPVLVIYDDDSRPSGIPERFSGSSSGGTATLTISGAQAEDEGDYYCQSADSSGNAAVFGGGTHLTVL
notes: as for B1
branches per spheroid, LOC cells, 0.5 nM [1]: 24 branches | branches per spheroid, LOC cells, 2.5 nM [1]: 30.3 branches | branches per spheroid, LOC cells, 12.5 nM [1]: 31.3 branches | branches per spheroid, MLP29 cells, 0.5 nM [2]: 30.3 branches | branches per spheroid, MLP29 cells, 2.5 nM [2]: 42 branches | branches per spheroid, MLP29 cells, 12.5 nM [2]: 42.7 branches | scatter score 0-4, HPAF-II, 0.001 nM [3]: 0 score | scatter score 0-4, HPAF-II, 0.004 nM [3]: 0 score | scatter score 0-4, HPAF-II, 0.012 nM [3]: 2 score | scatter score 0-4, HPAF-II, 0.037 nM [3]: 3 score | scatter score 0-4, HPAF-II, 0.111 nM [3]: 3 score | scatter score 0-4, HPAF-II, 0.333 nM [3]: 4 score | scatter score 0-4, HPAF-II, 1.000 nM [3]: 4 score | scatter score 0-4, HPAF-II, 3.000 nM [3]: 4 score | scatter score 0-4, HPAF-II, 9.000 nM [3]: 4 score | scatter score 0-4, MLP29, 0.001 nM [4]: 0 score | scatter score 0-4, MLP29, 0.004 nM [4]: 0 score | scatter score 0-4, MLP29, 0.012 nM [4]: 2 score | scatter score 0-4, MLP29, 0.037 nM [4]: 3 score | scatter score 0-4, MLP29, 0.111 nM [4]: 3 score | scatter score 0-4, MLP29, 0.333 nM [4]: 4 score | scatter score 0-4, MLP29, 1.000 nM [4]: 4 score | scatter score 0-4, MLP29, 3.000 nM [4]: 4 score | scatter score 0-4, MLP29, 9.000 nM [4]: 4 score | % binding (EMAX) compared to WT MET [5]: 76.7 % WT MET ECD | % binding (EMAX) compared to WT MET [6]: 65.4 % WT MET ECD | % binding (EMAX) compared to WT MET [7]: 128 % WT MET ECD | % binding (EMAX) compared to WT MET [8]: 117 % WT MET ECD | phospho-MET ELISA EC50, A549 cells [9]: 310 pM | phospho-MET ELISA EMAX (% HGF activity), A549 cells [9]: 86.6% | phospho-MET ELISA EC50, MLP29 cells [10]: 260 pM | phospho-MET ELISA EMAX (% HGF activity), MLP29 cells [10]: 96% | EC50 [11]: 514 pM | EMAX [11]: 161 % relative to control | EC50 [12]: 229 pM | EMAX (OD450) [12]: 2.4 AU | EC50 [13]: 176 pM | EMAX (OD450) [13]: 2.73 AU | IC50 [14]: 510 pM | IMAX [14]: 93.4% | % binding (EMAX) compared to WT MET [15]: 100 % WT MET ECD | protection from staurosporine, viability EC50, MCF10A cells [16]: < 500 pM | protection from staurosporine, viability EMAX, MCF10A cells [16]: 71.7% | protection from staurosporine, viability EC50, MLP29 cells [17]: < 500 pM | protection from staurosporine, viability EMAX, MLP29 cells [17]: 70.5% | EC50 [18]: 811 pM | EMAX [18]: 144 % relative to control | IC50 [19]: 540 pM | IMAX [19]: 87.7%
